Molecular target: T1, His-NEON-EBP50 PDZ1PDZ2 (human, UniProt O14745-1 1-298)
T1 sequence: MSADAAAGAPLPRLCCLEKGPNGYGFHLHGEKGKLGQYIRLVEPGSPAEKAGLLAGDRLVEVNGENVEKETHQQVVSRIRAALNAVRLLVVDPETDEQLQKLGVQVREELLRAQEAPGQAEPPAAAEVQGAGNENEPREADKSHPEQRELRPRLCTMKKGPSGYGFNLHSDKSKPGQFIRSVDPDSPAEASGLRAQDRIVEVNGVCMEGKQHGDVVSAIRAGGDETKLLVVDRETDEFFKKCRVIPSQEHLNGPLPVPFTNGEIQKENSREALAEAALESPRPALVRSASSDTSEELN
Assay: pull-down

B1: GST-CDHR5 CD (domain or fragment)
chain: RLKCCCGKAPEPQPQGFDNQAFLPDHKANWAPVPSPTHDPKPAEAPMPAEPAPPGPASPGGAPEPPAAARAGGSPTAVRSILTKERRPEGGYKAVWFGEDIGTEADVVVLNAPTLDVDGASDSGSGDEGEGAGRGGGPYDAPGGDDSYI
Question: Does B1 bind?
Answer: binds

Reference: publication doi:10.1101/2023.02.22.529570 (bioRxiv, 2023)
